# IntAct's records for PubMed 11230129
# B1: CBL-interacting serine/threonine-protein kinase 1 (Arabidopsis thaliana (Mouse-ear cress)), Q8RWC9 (parent)
# chain: MVRRQEEEKKAEKGMRLGKYELGRTLGEGNFGKVKFAKDTVSGHSFAVKIIDKSRIADLNFSLQIKREIRTLKMLKHPHIVRLHEVLASKTKINMVMELVTGGELFDRIVSNGKLTETDGRKMFQQLIDGISYCHSKGVFHRDLKLENVLLDAKGHIKITDFGLSALPQHFRDDGLLHTTCGSPNYVAPEVLANRGYDGAASDIWSCGVILYVILTGCLPFDDRNLAVLYQKICKGDPPIPRWLSPGARTMIKRMLDPNPVTRITVVGIKASEWFKLEYIPSIPDDDDEEEVDTDDDAFSIQELGSEEGKGSDSPTIINAFQLIGMSSFLDLSGFFEQENVSERRIRFTSNSSAKDLLEKIETAVTEMGFSVQKKHAKLRVKQEERNQKGQVGLSVTAEVFEIKPSLNVVELRKSYGDSCLYRQLYERLLKDVGTSSPEQEIVT
# Variants of: B1
# Settings: with cnbl2_arath CBL2, Q8LAS7
row,Variant,effect of a mutation on the interaction
1,MVRRQEEEKKAEKGMRLGKYELGRTLGEGNFGKVKFAKDTVSGHSFAVKIIDKSRIADLNFSLQIKREIRTLKMLKHPHIVRLHEVLASKTKINMVMELVTGGELFDRIVSNGKLTETDGRKMFQQLIDGISYCHSKGVFHRDLKLENVLLDAKGHIKITDFGLSALPQHFRDDGLLHTTCGSPNYVAPEVLANRGYDGAASDIWSCGVILYVILTGCLPFDDRNLAVLYQKICKGDPPIPRWLSPGARTMIKRMLDPNPVTRITVVGIKASEWFKLEYIPSIPDDDDEEEVDTDDDAFSIQELGSEEGKGSDSPTIINPFQLIGMSSFLDLSGFFEQENVSERRIRFTSNSSAKDLLEKIETAVTEMGFSVQKKHAKLRVKQEERNQKGQVGLSVTAEVFEIKPSLNVVELRKSYGDSCLYRQLYERLLKDVGTSSPEQEIVT [A320P],disrupting interaction
2,MVRRQEEEKKAEKGMRLGKYELGRTLGEGNFGKVKFAKDTVSGHSFAVKIIDKSRIADLNFSLQIKREIRTLKMLKHPHIVRLHEVLASKTKINMVMELVTGGELFDRIVSNGKLTETDGRKMFQQLIDGISYCHSKGVFHRDLKLENVLLDAKGHIKITDFGLSALPQHFRDDGLLHTTCGSPNYVAPEVLANRGYDGAASDIWSCGVILYVILTGCLPFDDRNLAVLYQKICKGDPPIPRWLSPGARTMIKRMLDPNPVTRITVVGIKASEWFKLEYIPSIPDDDDEEEVDTDDDAFSIQELGSEEGKGSDSATIINAFQLIGMSSFLDLSGFFEQENVSERRIRFTSNSSAKDLLEKIETAVTEMGFSVQKKHAKLRVKQEERNQKGQVGLSVTAEVFEIKPSLNVVELRKSYGDSCLYRQLYERLLKDVGTSSPEQEIVT [P315A],decreasing interaction
3,MVRRQEEEKKAEKGMRLGKYELGRTLGEGNFGKVKFAKDTVSGHSFAVKIIDKSRIADLNFSLQIKREIRTLKMLKHPHIVRLHEVLASKTKINMVMELVTGGELFDRIVSNGKLTETDGRKMFQQLIDGISYCHSKGVFHRDLKLENVLLDAKGHIKITDFGLSALPQHFRDDGLLHTTCGSPNYVAPEVLANRGYDGAASDIWSCGVILYVILTGCLPFDDRNLAVLYQKICKGDPPIPRWLSPGARTMIKRMLDPNPVTRITVVGIKASEWFKLEYIPSIPDDDDEEEVDTDDDAFSIQELGSEEGKGSDSPTIINAFQLDGMSSFLDLSGFFEQENVSERRIRFTSNSSAKDLLEKIETAVTEMGFSVQKKHAKLRVKQEERNQKGQVGLSVTAEVFEIKPSLNVVELRKSYGDSCLYRQLYERLLKDVGTSSPEQEIVT [I324D],decreasing interaction

# Other lines, results leading:
row,effect of a mutation on the interaction,Variant
1,decreasing interaction,MVRRQEEEKKAEKGMRLGKYELGRTLGEGNFGKVKFAKDTVSGHSFAVKIIDKSRIADLNFSLQIKREIRTLKMLKHPHIVRLHEVLASKTKINMVMELVTGGELFDRIVSNGKLTETDGRKMFQQLIDGISYCHSKGVFHRDLKLENVLLDAKGHIKITDFGLSALPQHFRDDGLLHTTCGSPNYVAPEVLANRGYDGAASDIWSCGVILYVILTGCLPFDDRNLAVLYQKICKGDPPIPRWLSPGARTMIKRMLDPNPVTRITVVGIKASEWFKLEYIPSIPDDDDEEEVDTDDDAFSIQELGSEEGKGSDSPTIINAFQLIGMLSFLDLSGFFEQENVSERRIRFTSNSSAKDLLEKIETAVTEMGFSVQKKHAKLRVKQEERNQKGQVGLSVTAEVFEIKPSLNVVELRKSYGDSCLYRQLYERLLKDVGTSSPEQEIVT [S327L]
2,disrupting interaction,MVRRQEEEKKAEKGMRLGKYELGRTLGEGNFGKVKFAKDTVSGHSFAVKIIDKSRIADLNFSLQIKREIRTLKMLKHPHIVRLHEVLASKTKINMVMELVTGGELFDRIVSNGKLTETDGRKMFQQLIDGISYCHSKGVFHRDLKLENVLLDAKGHIKITDFGLSALPQHFRDDGLLHTTCGSPNYVAPEVLANRGYDGAASDIWSCGVILYVILTGCLPFDDRNLAVLYQKICKGDPPIPRWLSPGARTMIKRMLDPNPVTRITVVGIKASEWFKLEYIPSIPDDDDEEEVDTDDDAFSIQELGSEEGKGSDSPTIINAFQLIGMSSFLDLSGPFEQENVSERRIRFTSNSSAKDLLEKIETAVTEMGFSVQKKHAKLRVKQEERNQKGQVGLSVTAEVFEIKPSLNVVELRKSYGDSCLYRQLYERLLKDVGTSSPEQEIVT [F335P]
3,disrupting interaction,MVRRQEEEKKAEKGMRLGKYELGRTLGEGNFGKVKFAKDTVSGHSFAVKIIDKSRIADLNFSLQIKREIRTLKMLKHPHIVRLHEVLASKTKINMVMELVTGGELFDRIVSNGKLTETDGRKMFQQLIDGISYCHSKGVFHRDLKLENVLLDAKGHIKITDFGLSALPQHFRDDGLLHTTCGSPNYVAPEVLANRGYDGAASDIWSCGVILYVILTGCLPFDDRNLAVLYQKICKGDPPIPRWLSPGARTMIKRMLDPNPVTRITVVGIKASEWFKLEYIPSIPDDDDEEEVDTDDDAFSIQELGSEEGKGSDSPTIINAFQLIGMSSFLDDSGFFEQENVSERRIRFTSNSSAKDLLEKIETAVTEMGFSVQKKHAKLRVKQEERNQKGQVGLSVTAEVFEIKPSLNVVELRKSYGDSCLYRQLYERLLKDVGTSSPEQEIVT [L332D]
